Several values for one entry are separate records, joined by “and”; a condition that tells them apart may be missing. Identical values can stand only once.
Tests used:
[1] = biological target: FYB fused N-terminally to Gaussia princeps luciferase fragment 1, O15117-3; assay: GPCA; settings: read off a plot
[2] = biological target: SKAP2N1 (SKAP2 with Gaussia princeps luciferase fragment 1 at its N-terminal end) (UniProt O75563); assay: GPCA; settings: read off a plot
HaloTag-FYB (human) = HaloTag-FYB (human) (UniProt O15117); assay: pull-down + split reporter (BiFC, NanoBiT); HaloTag-fused hook captured from HEK293T lysate on HaloLink resin, 6 washes with PBS 0.1% Tween; luminescence of the co-expressed GPCA pair on the resin; ratio of cells with the HaloTag vector to cells with the pCNeo vector expressing the same protein

Sequence of FYB fused N-terminally to Gaussia princeps luciferase fragment 1, O15117-3 (O15117 other isoform, or with tags, fused parts or gaps): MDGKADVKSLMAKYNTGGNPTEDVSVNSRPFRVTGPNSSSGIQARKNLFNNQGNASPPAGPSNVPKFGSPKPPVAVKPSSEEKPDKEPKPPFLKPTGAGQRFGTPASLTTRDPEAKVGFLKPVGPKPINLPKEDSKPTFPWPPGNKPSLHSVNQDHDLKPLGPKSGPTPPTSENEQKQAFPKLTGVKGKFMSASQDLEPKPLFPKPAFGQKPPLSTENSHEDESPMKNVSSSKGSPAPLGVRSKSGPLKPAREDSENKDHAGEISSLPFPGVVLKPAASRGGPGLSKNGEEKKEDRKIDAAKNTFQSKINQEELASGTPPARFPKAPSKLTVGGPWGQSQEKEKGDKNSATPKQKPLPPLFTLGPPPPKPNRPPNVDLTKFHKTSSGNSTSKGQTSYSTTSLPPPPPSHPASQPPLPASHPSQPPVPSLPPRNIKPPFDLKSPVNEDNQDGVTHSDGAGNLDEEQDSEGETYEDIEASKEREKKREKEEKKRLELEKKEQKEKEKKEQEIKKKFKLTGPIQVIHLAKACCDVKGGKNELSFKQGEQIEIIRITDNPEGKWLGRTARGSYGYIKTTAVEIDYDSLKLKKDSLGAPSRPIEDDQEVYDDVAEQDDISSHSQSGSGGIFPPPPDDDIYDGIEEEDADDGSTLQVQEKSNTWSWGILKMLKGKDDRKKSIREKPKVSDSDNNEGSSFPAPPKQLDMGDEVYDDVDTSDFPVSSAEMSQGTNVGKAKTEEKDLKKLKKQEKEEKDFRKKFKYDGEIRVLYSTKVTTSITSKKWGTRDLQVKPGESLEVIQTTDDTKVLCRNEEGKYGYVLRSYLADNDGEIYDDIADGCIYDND

Substance	response ([1]; HCK-P249A 0 ng, with A23187, parent: est. 850)	response ([1]; HCK-P249A 0 ng, without A23187, parent: est. 280)	response ([1]; HCK-P249A 25 ng, with A23187, parent: est. 1000)	response ([1]; HCK-P249A 25 ng, without A23187, parent: est. 190)	response ([1]; HCK-P249A 50 ng, with A23187, parent: est. 730)	response ([1]; HCK-P249A 50 ng, without A23187, parent: est. 540)	response ([1]; HCK-P249A 100 ng, with A23187, parent: est. 480)	response ([1]; HCK-P249A 100 ng, without A23187, parent: est. 570)	response ([1]; with A23187, parent: est. 760)	response ([1]; without A23187 (NT), parent: est. 390)	response ([2]; with A23187, parent: est. 320)	response ([2]; without A23187 (NT), parent: est. 240)	luminescence ratio (HaloTag vector to pCNeo control) (HaloTag-FYB (human))
SKAP2 V24D; F27D; V28E	2000 NLR	1000 NLR	2500 NLR	570 NLR	1900 NLR	1400 NLR	1300 NLR	1500 NLR	1500 NLR	540 NLR	4.9 NLR	2.2 NLR	
SKAP2 homo-dimer of two hemi-luciferase-fused SKAP2 (the pair generating the luciferase signal) (from UniProt O75563 1-359) (complex)													49.1 and 135 and 51.8
SKAP2-DIMPH hetero-dimer of hemi-luciferase-fused DIMPH and hemi-luciferase-fused SKAP2 (from UniProt O75563 1-222; O75563 1-359) (complex)													125 and 308 and 160
